Test results reported in patent US20120095193A1 (published 2012).
Residue numbers refer to the chain shown, from its start. Values belong to the binder of their own block, whether it stands above or below them.

Assays:
[1] = target: T1, human ADAMTS5 (human, UniProt Q9UNA0 262-622, limits assumed); assay: Octet QK, purified mAb
T1 construct: Octet and ELISA used 'recombinant human ADAMTS5'; also called recombinant human ADAMTS5; ADAMTS5 (R&D Systems 2198-AD)
T1 sequence: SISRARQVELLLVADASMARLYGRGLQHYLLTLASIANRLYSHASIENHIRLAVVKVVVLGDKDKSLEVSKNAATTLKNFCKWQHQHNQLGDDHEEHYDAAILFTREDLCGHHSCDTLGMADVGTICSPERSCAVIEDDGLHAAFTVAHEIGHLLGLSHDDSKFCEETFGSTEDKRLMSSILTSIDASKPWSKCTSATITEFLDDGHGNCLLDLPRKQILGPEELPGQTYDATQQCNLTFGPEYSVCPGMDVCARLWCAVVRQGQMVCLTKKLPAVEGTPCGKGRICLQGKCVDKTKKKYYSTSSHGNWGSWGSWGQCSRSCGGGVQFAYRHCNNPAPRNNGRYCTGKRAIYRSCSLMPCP

[2] = target: T1, human ADAMTS5; assay: Biacore, mAb down, no avidity
[3] = target: T1, human ADAMTS5; assay: Octet QK, purified murine mAb
[4] = target: T1, human ADAMTS5; assay: Octet QK, antigen down, incl avidity
[5] = target: T1, human ADAMTS5; assay: cell-based or functional assay
[6] = target: T2, Human MMP1 (human, UniProt P03956 20-469, limits assumed); assay: celTRF and Octet QK cross-reactivity
T2 sequence (looked up): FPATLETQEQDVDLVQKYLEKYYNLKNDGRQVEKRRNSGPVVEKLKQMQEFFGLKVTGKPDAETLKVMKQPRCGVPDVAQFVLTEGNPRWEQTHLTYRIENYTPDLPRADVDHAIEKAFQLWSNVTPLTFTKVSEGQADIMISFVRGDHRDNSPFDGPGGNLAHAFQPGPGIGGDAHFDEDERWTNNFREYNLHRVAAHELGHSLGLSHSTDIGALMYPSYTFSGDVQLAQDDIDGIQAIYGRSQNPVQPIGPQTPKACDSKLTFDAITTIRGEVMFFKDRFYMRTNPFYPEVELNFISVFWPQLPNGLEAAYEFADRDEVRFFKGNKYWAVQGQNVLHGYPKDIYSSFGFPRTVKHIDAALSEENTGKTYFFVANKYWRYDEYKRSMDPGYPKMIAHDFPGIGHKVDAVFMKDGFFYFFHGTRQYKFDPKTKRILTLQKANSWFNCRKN

[7] = target: T3, Human ADAMTS4 (human, UniProt O75173 213-685, limits assumed); assay: celTRF and Octet QK cross-reactivity
T3 construct: also called aggrecanase-1
T3 sequence: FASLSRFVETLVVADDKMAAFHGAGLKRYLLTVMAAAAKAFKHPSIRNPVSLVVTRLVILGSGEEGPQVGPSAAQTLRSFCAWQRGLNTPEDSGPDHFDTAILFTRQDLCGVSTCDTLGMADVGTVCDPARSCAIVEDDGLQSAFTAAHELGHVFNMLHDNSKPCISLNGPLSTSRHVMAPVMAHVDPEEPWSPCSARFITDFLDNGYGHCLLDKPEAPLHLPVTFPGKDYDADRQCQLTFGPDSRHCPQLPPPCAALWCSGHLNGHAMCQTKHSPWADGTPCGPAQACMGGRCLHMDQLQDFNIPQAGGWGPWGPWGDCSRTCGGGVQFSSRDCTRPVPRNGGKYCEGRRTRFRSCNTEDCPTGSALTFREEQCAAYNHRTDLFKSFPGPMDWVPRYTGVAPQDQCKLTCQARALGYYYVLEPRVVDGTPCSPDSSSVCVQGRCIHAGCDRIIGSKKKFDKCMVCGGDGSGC

[8] = target: Human MMP9 (human, UniProt P14780 20-707, limits assumed); assay: celTRF and Octet QK cross-reactivity
Chain of Human MMP9 (P14780 20-707 limits assumed): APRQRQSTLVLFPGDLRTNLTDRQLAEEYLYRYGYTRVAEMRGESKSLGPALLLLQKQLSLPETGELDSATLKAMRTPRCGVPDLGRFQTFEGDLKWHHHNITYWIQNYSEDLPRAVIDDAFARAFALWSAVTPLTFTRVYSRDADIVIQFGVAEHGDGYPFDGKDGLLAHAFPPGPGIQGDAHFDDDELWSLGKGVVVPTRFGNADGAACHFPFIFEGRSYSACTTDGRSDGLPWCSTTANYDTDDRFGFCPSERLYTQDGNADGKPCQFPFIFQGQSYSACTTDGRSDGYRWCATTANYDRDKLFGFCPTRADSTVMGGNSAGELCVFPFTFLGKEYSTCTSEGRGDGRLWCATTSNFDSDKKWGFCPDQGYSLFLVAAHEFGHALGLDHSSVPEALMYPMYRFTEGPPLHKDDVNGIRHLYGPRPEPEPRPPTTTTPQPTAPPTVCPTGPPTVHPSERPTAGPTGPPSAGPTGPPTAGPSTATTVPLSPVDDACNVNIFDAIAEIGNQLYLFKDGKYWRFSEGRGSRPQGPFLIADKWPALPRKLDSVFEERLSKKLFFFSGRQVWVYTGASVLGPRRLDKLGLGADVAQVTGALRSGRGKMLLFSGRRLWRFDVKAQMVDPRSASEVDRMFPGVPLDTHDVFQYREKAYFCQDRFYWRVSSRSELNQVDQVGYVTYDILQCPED

[9] = target: Human MMP13 (human, UniProt P45452 20-471, limits assumed); assay: celTRF and Octet QK cross-reactivity
[10] = target: T4, Human ADAMTS1 (human, UniProt Q9UHI8 253-967, limits assumed); assay: celTRF and Octet QK cross-reactivity
T4 sequence (looked up): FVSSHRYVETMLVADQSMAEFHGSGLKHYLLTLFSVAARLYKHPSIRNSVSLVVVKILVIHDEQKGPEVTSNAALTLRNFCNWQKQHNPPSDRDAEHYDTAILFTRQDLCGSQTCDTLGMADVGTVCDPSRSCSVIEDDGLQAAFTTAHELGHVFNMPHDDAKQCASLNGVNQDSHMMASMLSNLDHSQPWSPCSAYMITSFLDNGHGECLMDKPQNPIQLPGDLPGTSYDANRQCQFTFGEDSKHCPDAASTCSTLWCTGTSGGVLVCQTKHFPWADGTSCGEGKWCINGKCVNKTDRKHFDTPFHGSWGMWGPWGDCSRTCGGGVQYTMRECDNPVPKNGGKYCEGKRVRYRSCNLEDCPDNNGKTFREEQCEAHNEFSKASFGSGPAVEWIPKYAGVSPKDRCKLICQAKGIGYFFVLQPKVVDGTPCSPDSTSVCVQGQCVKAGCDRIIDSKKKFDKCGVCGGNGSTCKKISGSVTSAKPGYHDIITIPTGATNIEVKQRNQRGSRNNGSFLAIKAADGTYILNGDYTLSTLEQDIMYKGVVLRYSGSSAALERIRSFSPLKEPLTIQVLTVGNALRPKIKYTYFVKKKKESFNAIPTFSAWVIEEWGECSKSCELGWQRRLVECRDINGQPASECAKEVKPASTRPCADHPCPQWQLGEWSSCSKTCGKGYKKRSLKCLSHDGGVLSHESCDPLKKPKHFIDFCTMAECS

[11] = target: Human MMP3 (human, UniProt P08254 18-477, limits assumed); assay: celTRF and Octet QK cross-reactivity
Chain of Human MMP3 (P08254 18-477 limits assumed): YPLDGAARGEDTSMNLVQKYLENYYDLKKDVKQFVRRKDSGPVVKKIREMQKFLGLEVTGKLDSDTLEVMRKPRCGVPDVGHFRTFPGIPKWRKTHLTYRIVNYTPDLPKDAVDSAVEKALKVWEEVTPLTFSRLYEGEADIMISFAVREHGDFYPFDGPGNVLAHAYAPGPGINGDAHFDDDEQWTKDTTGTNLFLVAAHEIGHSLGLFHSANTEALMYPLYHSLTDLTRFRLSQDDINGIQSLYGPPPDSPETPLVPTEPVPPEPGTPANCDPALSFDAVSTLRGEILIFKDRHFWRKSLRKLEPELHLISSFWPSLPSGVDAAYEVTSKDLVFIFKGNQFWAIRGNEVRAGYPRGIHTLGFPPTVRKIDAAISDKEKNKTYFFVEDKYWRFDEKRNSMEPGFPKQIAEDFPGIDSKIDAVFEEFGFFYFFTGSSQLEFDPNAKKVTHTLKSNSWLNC

[12] = target: T5, Human ADAMTS13 (human, UniProt Q76LX8 75-685, limits assumed); assay: celTRF and Octet QK cross-reactivity
T5 sequence (looked up): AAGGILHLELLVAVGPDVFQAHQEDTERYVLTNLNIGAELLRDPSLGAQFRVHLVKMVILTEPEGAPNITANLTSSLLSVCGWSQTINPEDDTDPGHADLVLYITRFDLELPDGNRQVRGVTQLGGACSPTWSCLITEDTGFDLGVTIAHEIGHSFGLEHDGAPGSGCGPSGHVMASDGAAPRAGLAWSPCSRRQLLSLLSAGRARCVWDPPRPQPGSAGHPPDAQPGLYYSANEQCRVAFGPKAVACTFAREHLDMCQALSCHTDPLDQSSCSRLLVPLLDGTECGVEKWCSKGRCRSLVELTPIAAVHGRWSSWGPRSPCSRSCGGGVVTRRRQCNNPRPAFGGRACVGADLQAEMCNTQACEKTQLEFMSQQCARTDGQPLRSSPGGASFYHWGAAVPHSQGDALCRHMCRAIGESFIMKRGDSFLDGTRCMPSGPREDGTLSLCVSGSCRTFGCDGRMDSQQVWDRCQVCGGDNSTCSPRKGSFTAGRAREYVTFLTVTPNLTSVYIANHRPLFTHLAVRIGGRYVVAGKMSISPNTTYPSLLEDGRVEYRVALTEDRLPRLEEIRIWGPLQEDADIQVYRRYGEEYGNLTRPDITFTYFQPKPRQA

[13] = target: T1, human ADAMTS5; assay: Biacore, mAb from culture supernatant captured on anti-human IgG, ADAMTS5 (R&D 2198-AD) at 64 nM, 1:1 fit
Procedure: (§1) Anti-human IgG (Biacore™, BR-1008-39) was immobilized on a CM5 chip by primary amine coupling. This surface was then used to capture the humanized antibodies, ADAMTS5 (R&D Systems 2198-AD) was then passed over the captured antibody at a single concentration of 64 nM, regeneration was carried out using 100 mM phosphoric acid followed by 3M MgCl₂. The binding curves were double referenced with buffer injection (i.e. 0 nM) and the data was fitted to the T100 analysis software using the 1:1 model. The run was carried out at 25° C., using HBS-EP as the running buffer. All antibodies were captured from tissue culture supernatants unless specified.

[14] = target: T1, human ADAMTS5; assay: Biacore, purified mAb captured on anti-human IgG, ADAMTS5 (R&D 2198-AD) at 64 nM, 1:1 fit
Procedure: as §1

[15] = target: T1, human ADAMTS5; assay: ELISA on coated recombinant human ADAMTS5 (0.2 ug/ml), antibody in culture supernatant, anti human kappa peroxidase, OD 490 nm
Procedure: A binding ELISA was carried out to test the binding of the expressed antibodies in cell culture supernatant to recombinant ADAMTS5. ELISA plates were coated with recombinant human ADAMTS5 at 0.2 μg/ml and blocked with blocking solution (4% BSA in Tris buffered saline). Various dilutions of the tissue culture supernatants were added and the plate was incubated for 1 hour at room temperature before washing in TBST. Binding was detected by the addition of a peroxidase labelled anti human kappa light chain antibody (Sigma A7164) at a dilution of 1/1000 in blocking solution. The plate was incubated for 1 hour at room temp before washing in TBST. The plate was developed by addition of OPD substrate (Sigma P9187) and colour development stopped by addition of 2M H₂SO₄. Absorbance was measured at 490 nm with a plate reader and the mean absorbance plotted against concentration.

B1: 7B4.1E11 (antibody, IgG1, V domains shown)
VH: EVKLEESGGGLVQPGGSMKLSCAASGFTSSDAWMDWVRQSPEKGLEWVAEIRNKANNHARHYAESVKGRFTISRDDSKSSVYLQMNSLRAEDSGIYYCTRTYYYGSSYGYCDVWGTGTTVTVSS
VL: DIQMTQSPASLSASVGETVTITCRTSENIYSYLAWYQQKQGKSPQLLVYNAKTLAEGVPSRFSGSGSGTQFSLKINSLQPEDFGSYSCQHHYGTPWTFGGGTKLEIKR
notes: also called Murine 7B4.1E11
Kd [1]: 0.358 nM | Kd [2]: 0.483 nM | Kd [3]: 0.899 nM | Kd [4]: 0.28 nM | Aggrecan Substrate Cleavage Neutralization IC50 [5]: 0.08 nM | binding result [6]: no binding | binding result [7]: no binding | binding result [8]: no binding | binding result [9]: no binding | binding result [10]: no binding | binding result [11]: no binding | binding result [12]: no binding

B3: 12F4.1H7 (antibody, IgG2, V domains shown)
VH: EVKLEESGGGLVQPGGSMKLSCTASGFTFSDAWMDWVRQSPEKGLEWVAEIRHKANDHAIFYDESVKGRFTISRDDSKNIVYLQMNSLRPEDTGIYYCTSPFAYWGQGTLVTVSA
VL: DIVMTQSQKFMSVTVGDRVSITCKASQSVGTTIVWYQQKPGQSPKLLIYSASNRHTGVPDRFTGSGSGTDFILTINNVQSEDLADYFCQQYTSYPFTFGSGTKLEIKR
notes: also called Murine 12F4.1H7
Kd [1]: 0.0685 nM | Kd [2]: 0.067 nM | Kd [3]: 0.436 nM | Kd [4]: 0.0356 nM | Aggrecan Substrate Cleavage Neutralization IC50 [5]: 0.06 nM | binding result [6]: no binding | binding result [7]: no binding | binding result [8]: no binding | binding result [9]: no binding | binding result [10]: no binding | binding result [11]: no binding | binding result [12]: no binding

Results, then the binder that gave them:

Kd [1]: 0.345 nM | Kd [2]: 0.473 nM | Kd [13]: 1.12 nM | koff [13]: 0.0013 s⁻¹ | kon [13]: 1.16e+06 M⁻¹ s⁻¹ | Kd [4]: 0.26 nM | Kd [14]: 1.21 nM | koff [14]: 0.00106 s⁻¹ | kon [14]: 872000 M⁻¹ s⁻¹
B2: BPC1622 (antibody, human IgG1, kappa, V domains shown)
VH: B1 VH with T119L
VL: B1 VL
notes: Chimeric: murine variable domains on human gamma 1 and kappa constant regions; also called 7B4 Chimera; Chimeric 7B4.1E11

Kd [1]: 0.0799 nM | Kd [2]: 0.051 nM | Kd [13]: 0.0774 nM | koff [13]: 4.82e-05 s⁻¹ | kon [13]: 623000 M⁻¹ s⁻¹ | Kd [4]: 0.0431 nM | Kd [14]: 0.0727 nM | koff [14]: 4.7e-05 s⁻¹ | kon [14]: 646000 M⁻¹ s⁻¹
B4: BPC1623 (antibody, human IgG1, kappa, V domains shown)
VH: B3 VH with A115S
VL: B3 VL
notes: Chimeric: murine variable domains on human gamma 1 and kappa constant regions; also called 12F4 Chimera; Chimeric 12F4.1H7

binding result [15]: no binding (tested: about 2.5 ug/ml)
B5: BPC1655 (antibody, human IgG1, kappa, V domains shown)
VH: EVQLLESGGGLVQPGGSLRLSCAASGFTFSDAWMDWVRQAPGKGLEWVSEIRHKANDHAIFYDESVKGRFTISRDNSKNTLYLQMNSLRAEDTAVYYCAKPFAYWGQGTLVTVSS
VL: DIQMTQSPSSLSASVGDRVTITCKASQSVGTTIVWYQQKPGKAPKLLIYSASNRHTGVPSRFSGSGSGTDFTLTISSLQPEDFATYYCQQYTSYPFTFGQGTKLEIKR
notes: Humanized, human gamma 1 / kappa; also called 12F4 H0L0
